Test results published in article PMC7567440.

Biological target: pigeon ovomucoid (pigeon)
Assay: BLI; BLItz system; biotinylated POVO; recombinant flagellin

Question: For “recombinant flagellin of Bacillus cereus HN001 (WR52_08290) (natural protein)”, which Kd is on record?
Answer: Its Kd is 3.69 nM.
